The text below walks through data of patent publication US20100158968A1 (published 2010).

Experiment [1] addresses T1, mitogen-activated protein kinase-activated protein kinase 2 (human MK2) (human, UniProt P49137 46-400). As to the kind of experiment: kinase inhibition, radiometric assay.
The target of experiment [2] is T1, mitogen-activated protein …. Description: kinase inhibition, radiometric assay. This is another data set of the same source.

Where two headings read alike, the source gives them in different places.

T1 sequence (P49137 46-400): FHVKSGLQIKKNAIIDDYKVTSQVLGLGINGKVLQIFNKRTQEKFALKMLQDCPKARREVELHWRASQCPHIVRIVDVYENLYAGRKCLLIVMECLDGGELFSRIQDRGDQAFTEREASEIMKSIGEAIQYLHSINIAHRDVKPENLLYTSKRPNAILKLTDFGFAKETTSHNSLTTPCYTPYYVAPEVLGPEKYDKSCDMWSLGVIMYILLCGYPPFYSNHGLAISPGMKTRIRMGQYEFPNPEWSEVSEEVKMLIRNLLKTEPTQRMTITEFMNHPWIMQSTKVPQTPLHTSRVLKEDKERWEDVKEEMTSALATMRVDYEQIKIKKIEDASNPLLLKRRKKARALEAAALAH

Usually IC50 stands for the concentration needed to halve the response being measured. In the case of YARAAARQARA, the half-maximal inhibitory concentration (IC50) in experiment [1] is more than 1000 µM.

Turning to KAFAKLAARLYRKALARQLGVAA, the IC50 in experiment [2] is 4.43 µM. This counts as single-digit micromolar.

Molecule KKKALNRQLGVAA gave an IC50 in experiment [1] of 31.2 µM.
